Series [1] concerns the target T1, ScPif1 (Saccharomyces cerevisiae Pif1, residues 236–753) (Saccharomyces cerevisiae, UniProt P07271).
T1 construct: helicase core domain, residues 236-753; N-terminal SUMO tag (pET28a) cleaved by Ulp protease; E. coli BL21; monomer on G4 DNA
T1 sequence (P07271 236-753): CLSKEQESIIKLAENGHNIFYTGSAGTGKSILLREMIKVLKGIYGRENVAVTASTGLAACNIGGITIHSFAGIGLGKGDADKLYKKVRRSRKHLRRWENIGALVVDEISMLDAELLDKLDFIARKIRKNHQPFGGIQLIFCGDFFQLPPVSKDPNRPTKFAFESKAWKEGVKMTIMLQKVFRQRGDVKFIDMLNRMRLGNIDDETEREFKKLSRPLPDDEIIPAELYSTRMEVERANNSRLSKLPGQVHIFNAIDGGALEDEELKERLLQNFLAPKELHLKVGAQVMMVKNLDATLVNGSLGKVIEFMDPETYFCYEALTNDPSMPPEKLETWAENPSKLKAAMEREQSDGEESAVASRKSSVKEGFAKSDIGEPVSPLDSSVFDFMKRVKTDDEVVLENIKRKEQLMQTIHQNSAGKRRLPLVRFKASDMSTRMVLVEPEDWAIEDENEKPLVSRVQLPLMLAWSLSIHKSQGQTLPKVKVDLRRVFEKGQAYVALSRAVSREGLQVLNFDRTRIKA
Nature of the series: ATP hydrolysis assay. It counts as biochemical. The note with it: ATPase rate only in supplement.

Another series has as its target T2, ScPif1 (Saccharomyces cerevisiae, UniProt P07271 236-753).
T2 sequence: T1 sequence (P07271 236-753)
The experiment in a line: fluorescence anisotropy; no nucleotide; Fluorescence anisotropy: 20 mM HEPES-NaOH pH 7.5, 100 mM NaCl, 10% glycerol, 20 C, 10 nM FAM-DNA, 30 min, quadratic fit. The note with it: protein: recombinant, tags: N-terminal SUMO tag (Ni-NTA purified), cleaved by Ulp protease, label: 3' 6-FAM. In general terms: Fluorescence polarisation rises when a labelled molecule tumbles more slowly, as on binding a larger partner.

The target of the next series is T3, ScPif1 R324Y (Saccharomyces cerevisiae, UniProt P07271 236-753, R324Y).
T3 sequence: T1 sequence (P07271 236-753) with R89Y
The description is as above. The note with it: protein: recombinant; tags: N-terminal SUMO tag, cleaved; label: 3' 6-FAM; parallel intramolecular G4.

Another series has as its target T4, ScPif1 R324A (Saccharomyces cerevisiae, UniProt P07271 236-753, R324A).
T4 sequence: T1 sequence (P07271 236-753) with R89A
The series is described as above. The note with it: protein: recombinant; tags: N-terminal SUMO tag, cleaved; label: 3' 6-FAM; parallel intramolecular G4.

Another series concerns the target T5, ScPif1 R324E (Saccharomyces cerevisiae, UniProt P07271 236-753, R324E).
T5 sequence: T1 sequence (P07271 236-753) with R89E
The series is described as above. The note with it: protein: recombinant; tags: N-terminal SUMO tag, cleaved; label: 3' 6-FAM; parallel intramolecular G4.

For another series, the target named is T6, ScPif1 R324W (Saccharomyces cerevisiae, UniProt P07271 236-753, R324W).
T6 sequence: T1 sequence (P07271 236-753) with R89W
The description is as above. The note with it: protein: recombinant; tags: N-terminal SUMO tag, cleaved; label: 3' 6-FAM; parallel intramolecular G4.

Residue numbers refer to the chain shown, from its start.

Turning to `Nc1ncnc2c1ncn2[C@@H]1O[C@H](COP(=O)(O)OP(=O)(O)OP(=O)(O)O)[C@@H](O)[C@H]1O` [ATP], the ATP hydrolysis assay result in series [1] is “they hydrolyze ATP at a similar rate to WT ScPif1”.
Consider TTTTTTTTGGTGGTGGTTGTTGTGGTGGTGGTGGT (structured_DNA) [T7-AT11-FAM], for which, in the series with ScPif1 (parallel intramolecular G4 with 5' ssDNA tail), the Kd (in general, a measure of binding affinity in units of concentration) worked out at 7.23 nM.
Consider TGGTGGTGGTTGTTGTGGTGGTGGTGGT (structured_DNA) [AT11-FAM], for which the Kd is 10.9 nM in the series with ScPif1 R324Y; 11.8 nM with ScPif1 R324A; 25.6 nM with ScPif1 R324E; 11.2 nM with ScPif1 (parallel intramolecular G4); 9.57 nM in the series with ScPif1 R324W.
As for TTTTTTT (ssDNA) [T7-FAM], the Kd with ScPif1 (single strand) was 12.8 nM.

These data come from paper PMC11275212, “Eukaryotic Pif1 helicase unwinds G-quadruplex and dsDNA using a conserved wedge” (Nature Communications, 2024).
